One data set deals with NIH 3T3 cells. Description: Luciferase expression levels in transfected mammalian cells (luminescence of lysates). The class given is cell-based, murine. Conditions: mammalian cell systems. The protocol: NIH 3T3 cells (murine […] fibroblasts) were grown to 80% confluence in 100 mm tissue culture plates. Cells were transfected with either pDC57 or pDC99 using Lipofectamine and PLUS reagents (Invitrogen).
(§1) Transfected NIH 3T3 cells prepared in Example 4 were lysed using a lysis buffer comprised of 25 mM Tris-phosphate (pH 7.8), containing 10% glycerol, 1% Triton X-100, 1 mg/ml BSA, 2 mM EGTA and 2 mM DTT. Cells were washed with 1× Phosphate Buffered Saline, and lysis buffer (1 mL) was added to surface of plate. Plate was incubated for 30 mins, and lysate was collected. Additionally, NIH 3T3 cells were transfected with pSV40-GL3, a construct containing wild type luciferase from Photinus pyralis, as per the method in Example 4 and lysed using the above method. As a negative control, untransfected NIH 3T3 cells were also lysed by the above method.
(§2) Cell lysates were diluted using lysis buffer, and added in triplicate to wells of a solid white 96-well plate (Costar). Added to cell lysates was a reagent containing 1 mM D-luciferin and 2 mM ATP in a buffer comprised of 25 mM Glycylglycine, 15 mM MgSO4, 4 mM EDTA, 15 mM Potassium phosphate pH 7.8, 1 mM DTT, and 1 mM Coenzyme A.
(§3) Luminescence was recorded using a Perkin-Elmer HTS7000 Plus Bio Assay Reader (200 ms integration time).

Data set [1] in a line: Thermal stability of modified Luciola cruciata luciferase protein versus wild type protein (residual luminescence of cell lysates after incubation). The following applies: for stability of the protein relative to wild type: 37° C. How it is done: as §1, §2, §3
Cell lysates from NIH 3T3 cells transfected with pDC99 and pSV40-GL3 (transfected according to method in Example 4), as well as untransfected cells were prepared as described in Example 5a. Luminescence of each sample was recorded as described in Example 5a to obtain a baseline value of enzyme activity. Portions of each sample were then incubated in water baths at 37° C., 42° C., and 55° C. A portion of each sample was also incubated at ambient room temperature (25° C.). At 1 hour and 2 hour intervals, aliquots of each temperature-incubation were removed and assayed for activity using the method described in Example 5a.

B1: modified luciferase: Luciola cruciata luciferase with Ser to Tyr change at position 286, amino acid sequence SEQ ID NO:4, encoded by codon optimized gene SEQ ID NO:3 (protein, listed as Luciola cruciata)
chain: MENMENDENIVVGPKPFYPIEEGSAGTQLRKYMERYAKLGAIAFTNAVTGVDYSYAEYLEKSCCLGKALQNYGLVVDGRIALCSENCEEFFIPVIAGLFIGVGVAPTNEIYTLRELVHSLGISKPTIVFSSKKGLDKVITVQKTVTTIKTIVILDSKVDYRGYQCLDTFIKRNTPPGFQASSFKTVEVDRKEQVALIMNSSGSTGLPKGVQLTHENTVTRFSHARDPIYGNQVSPGTAVLTVVPFHHGFGMFTTLGYLICGFRVVMLTKFDEETFLKTLQDYKCTYVILVPTLFAILNKSELLNKYDLSNLVEIASGGAPLSKEVGEAVARRFNLPGVRQGYGLTETTSAIIITPEGDDKPGASGKVVPLFKAKVIDLDTKKSLGPNRRGEVCVKGPMLMKGYVNNPEATKELIDEEGWLHTGDIGYYDEEKHFFIVDRLKSLIKYKGYQVPPAELESVLLQHPSIFDAGVAGVPDPVAGELPGAVVVLESGKNMTEKEVMDYVASQVSNAKRLRGGVRFVDEVPKGLTGKIDGRAIREILKKPVAKM
On to B1, for which, in the data set with NIH 3T3 cells, the “expression level compared to native luciferase” value is given as “higher expression levels”. Also, the “stability of the protein relative to wild type” value in data set [1] (after 1 hour) is greater than 100 fold; in data set [1] (after 2 hours), greater than 1000 fold. Moreover, the “thermostability compared with wild-type protein” value in data set [1] (room temperature) is recorded as “greater thermostability”.

(Values after US8450054B2, “Modified Luciola cruciata luciferase gene and protein” (Marker Gene Technologies, Inc., priority 2008, dated 2013).)
